In paper PMC10003451 (2023):
Where no end group is shown, it is not given here. [ ]: non-standard residue; d: D form. pT = C[C@@H](OP(=O)(O)O)[C@H](N)C(=O)O

Target: recombinant protein phosphatase-1 catalytic subunit alpha (PP1cα) (UniProt P62136 1-330)
Experiment: ITC

recombinant protein phosphatase-1 catalytic subunit alpha (PP1cα), sequence (P62136 whole entry): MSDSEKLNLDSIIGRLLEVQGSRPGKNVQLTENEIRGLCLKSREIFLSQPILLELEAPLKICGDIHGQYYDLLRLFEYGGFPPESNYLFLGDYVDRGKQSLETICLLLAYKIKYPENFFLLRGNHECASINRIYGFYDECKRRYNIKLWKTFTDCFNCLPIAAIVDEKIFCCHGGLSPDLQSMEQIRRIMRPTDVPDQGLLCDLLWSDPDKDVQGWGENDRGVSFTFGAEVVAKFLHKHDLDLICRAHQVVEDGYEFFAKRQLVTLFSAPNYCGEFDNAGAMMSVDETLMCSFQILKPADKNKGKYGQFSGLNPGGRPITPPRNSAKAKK

- Ka: 2.57e+06 M⁻¹
Binder: RQSRRS[pT]QGVTL
